{"source": "patent US12391762B2", "about": "“Methods and compositions relating to GLP1R variants” (Twist Bioscience Corporation, priority 2020, dated 2025)", "molecules": {"B1": {"name": "GLP1R-3: antagonist GLP-1R IgG with GLP-1 motif in CDRH3 (SEQ ID NO 20) (antibody)", "heavy": "QVQLVESGGGVVQPGRSLRLSCAASGFTFSSYGMHWVRQAPGKGLEWVSFISYDESNKYYADSVKGRFTISRDNSKNTLYLQMNSLRAEDTAVYYCAKHMSMQEGAVTGEGQAAKEFIAWLVKGRVRADLVGDAFDVWGQGTLVTVSSASTKGPSVFPLAPCSRSTSESTAALGCLVKDYFPEPVTVSWNSGALTSGVHTFPAVLQSSGLYSLSSVVTVPSSNFGTQTYTCNVDHKPSNTKVDKTVERKCCVECPPCPAPPVAGPSVFLFPPKPKDTLMISRTPEVTCVVVDVSHEDPEVQFNWYVDGVEVHNAKTKPREEQFNSTFRVVSVLTVVHQDWLNGKEYKCKVSNKGLPAPIEKTISKTKGQPREPQVYTLPPSREEMTKNQVSLTCLVKGFYPSDIAVEWESNGQPENNYKTTPPMLDSDGSFFLYSKLTVDKSRWQQGNVFSCSVMHEALHNHYTQKSLSLSPGK", "light": "QSVLTQPPSVSAAPGQKVTISCSGSSSNIADNYVSWYQQLPGTAPKLLIYDNNKRPSGIPDRFSGSKSGTSATLGITGLQTGDEADYYCGTWDNYLGAGVFGGGTKLTVLGQPKAAPSVTLFPPSSEELQANKATLVCLISDFYPGAVTVAWKADSSPVKAGVETTTPSKQSNNKYAASSYLSLTPEQWKSHRSYSCQVTHEGSTVEKTVAPTECS"}}, "key": {"CHO-parent cells": {"tested_on": "CHO-parent cells", "test": "Flow cytometry binding assay on CHO-parent cells (background binding)", "design": "species or system Chinese Hamster", "description": "GLP-1R IgG clones were tested in a binding assay coupled to flow cytometry analysis as follows: FLAG-GLP-1R-GFP expressing CHO cells (CHO-GLP-1R) and CHO-parent cells were incubated with 100 nM IgG for 1 h on ice, washed three times and incubated with Alexa 647 conjugated goat-anti-human antibody (1:200) (Jackson ImmunoResearch Laboratories, 109-605-044) for 30 min on ice, followed by three washes, centrifuging to pellet the cells between each washing step. All incubations and washes were in buffer containing PBS+1% BSA. For titrations, IgG was serially diluted 1:3 starting from 100 nM down to 0.046 nM. Cells were analyzed by flow cytometry and hits (a hit is an IgG that specifically binds to CHO-GLP-1R) were identified by measuring the GFP signal against the Alexa 647 signal. Flow cytometry data of binding assays with 100 nM IgG are presented as dot plots. Analyses of binding assays with IgG titrations are presented as binding curves plotting IgG concentrations against MFI (mean fluorescence intensity)."}, "[1]": {"test": "Rat PK study, ELISA for human IgG in plasma", "format": "in vivo", "conditions": "10 mg/kg IV, 2-week PK study, beta phase", "description": "The rat PK study was done at Charles River Laboratories, One Innovation Dr, 3 Biotech, Worcester, MA 01605. 5 Male Sprague-Dawley rats per group were allowed to acclimate after receiving at test facility for a minimum of 3 days before dosing. […] Serial blood samples were collected via jugular vein cannula with ˜250 ul volume at each time point: pre-dose, 0.0833, 0.25, 0.5, 1, 2, 4, 8, 24, 48, 72, 96, 168, 240 and 336 hours post dose. Blood samples were collected into K2EDTA tubes and stored on wet ice until processed to plasma by centrifugation (3500 rpm for 10 minutes at 5° C.) within 30 minutes of collection. Plasma samples were then transferred into an appropriate tube containing DPP-4 (3.3 μL for 100 μL of plasma) and frozen on dry ice. To measure the human IgG in rat plasma samples, sheep anti-Human IgG (1 mg/mL) was used as coating reagent) (The binding site, Lot No. AU003.M), and goat anti-Human IgG, HRP (H&L) (1 mg/mL) was used as detection reagent) (Bethyl, cat #A80-319P) in an ELISA assay. Stock solutions of human IgG standards and QCs were prepared by spiking human IgG into rat plasma. […] The semi-logarithmic sigmoid calibration curve was obtained by plotting the absorbance response against concentration. Concentrations of analyte in the test samples were determined by computer interpolation from the plot of the calibration curve."}, "[2]": {"test": "Insulin Tolerance Test (ITT)", "format": "in vivo, mouse", "conditions": "for Area Under the Curve (AUC) in ITT: vs control", "description": "Animals. All animal procedures were approved by Institutional Animal Care and Use Committee (IACUC) at the University of California San Francisco and were conducted in accordance with the National Institutes of Health Guide for the Care and Use of laboratory Animals. C57BL/6NHsd (Envigo RMS, LLC) male littermates at 8-10 weeks of age, weighing ˜20-28 grams, were used in all the studies described. The mice were housed in a room that was temperature (22-25 C) and light controlled (12-h: 12-h light/dark cycle starting at 7 AM. The mice were fed with chow diet with 9% fat (PicoLab mouse Diet 20 (#5058), Lab Supply, Fortworth Texas, USA) for the duration of housing at the UCSF animal care facility.\n1. mAb administered as a single dose, 15 hours prior to GTT and 21 hours prior to ITT. 2. mAb administered as a double dose, 15 hours prior to GTT and 21 hours prior to ITT plus a second mAb dose 2 hours prior to GTT and ITT. 3. mAb as a single dose 6 hours prior to GTT and ITT. 4. mAb single dose 2 hours prior to GTT and ITT.\nExtendin 9-39 Peptide (MedChemExpress, Cat. No.: HY-P0264) were dosed at 1.0 or 0.23 mg/kg at three different administration regimen groups. 1. Extendin administered as a single dose, 21 hours prior to ITT. 2. Extendin administered as a double dose, 21 hours prior to ITT plus a second Extendin dose 2 hours prior to ITT. 3. mAb as a single dose 6 hours prior to ITT.\nAn Insulin Tolerance Test (ITT) was conducted to assess two different anti-GLP1 mAbs (agonist and antagonist) effect on insulin sensitivity following acute insulin administration. 8 or 10-week old male mice were fasted for 6 hours and body weight was recorded before and after fasting. To avoid circadian variations in mouse blood glucose levels this testing was performed at fixed times. Blood samples were collected by tail nick and baseline glucose was measured prior to insulin injection. Mice were injected, i.p., with a single bolus (0.75 U/Kg body weight) of human insulin (Novolin, Novo Nordisk) and blood glucose levels were measured at 15, 30, 45, 60 and 120 minutes after insulin injection. Blood glucose levels were monitored using a OneTouch Ultra 2 glucose monitor (LifeScan, Inc.)."}, "GLP-1R [3]": {"target": "T1, GLP-1R (Homo sapiens, UniProt P43220)", "test": "cAMP assays (agonist and antagonist mode), GLP-1R over-expressing CHO-K1 cells", "format": "cell-based", "design": "host or cells: CHO-K1", "conditions": "pre-incubation with fixed concentration of IgG (100 nM), then GLP-1 7-36 titration", "description": "CAMP assays. GLP-1R IgG clones were tested for their potential effects on GLP-1R signaling by performing cAMP assays obtained from Eurofins DiscoverXX. The technology involved in detecting cAMP levels is a no wash gain-of-signal competitive immunoassay based on Enzyme Fragment Complementation technology. Experiments were designed to test for either agonist or antagonist activity of the IgG clones. To test for agonist activity of the IgGs, cells were stimulated with IgG incubating for 30 min at 37° C. […] Intracellular CAMP levels were detected by following the assay kit instructions."}, "GLP-1R [4]": {"target": "T1, GLP-1R", "test": "Beta arrestin recruitment assay, GLP-1R overexpressing CHO-K1 cells", "format": "cell-based", "design": "host or cells: CHO-K1", "conditions": "100 nM IgG pre-incubated 1 hr", "description": "Beta arrestin recruitment assy. β-arrestin recruitment assay was obtained from Eurofins DiscoverXX (Cat #93-0300E2) that utilized untagged GLP-1R overexpressing CHO-K1 cells. […] Expanded cells were seeded into 96 well plates at 5,000 cells/well, and the experiment was performed 48 hours after plating cells. […] Add 22.5 uL of detection solution to each well, tap gently and briefly spin down. Then incubate plates at RT for 1 hour in the dark. The plates were then read by a Chemiluminescence plate reader, Molecular Devices SpectraMax® M5, and output relative light units (RLU) data were analyzed using GraphPad Prism™."}, "GLP-1R [5]": {"target": "T1, GLP-1R", "test": "Ec50", "design": "The full length human GLP-1R gene (UniProt-P43220) with an N-terminal FLAG tag and C-terminal GFP tag; expressed in transfected cells", "description": "Table printed on a drawing sheet, FIG. 16A"}}, "data": [{"molecule": "B1", "values": [{"measurement": "Median RL1-H of Parent Singlets", "setting": "CHO-parent cells; Table 6C, GLP1R-221 variants", "value": 234}, {"measurement": "Median RL1-H of Parent Singlets", "setting": "CHO-parent cells; Table 6D, GLP1R-222 variants", "value": 302.5}, {"measurement": "Bmax CHO Parent", "setting": "CHO-parent cells; Table 6E, IgG titration", "value": 268}, {"measurement": "in vivo half-life", "setting": "[1]", "value": "~1", "unit": "week"}, {"measurement": "Area Under the Curve (AUC) in ITT", "setting": "[2]; 19+2 hour, GLP1R-3 20 mg/kg, Exendin 1 mg/kg", "value": "significant (p<0.0001)"}, {"measurement": "blood glucose after insulin challenge", "setting": "[2]; 19+2 hours dosing regimen, C57BL/6NHsd mice", "value": "significantly stabilizes a higher blood glucose"}, {"measurement": "blood glucose after insulin challenge", "setting": "[2]; single 6 hour dosing regimen, comparator antibody experiment, 20 mg/kg", "value": "significantly stabilized a higher blood glucose"}, {"measurement": "blood glucose after insulin challenge", "setting": "[2]; single 6 hour dosing regimen, compared to Exendin 9-39 or control", "value": "significantly stabilizes a higher blood glucose"}, {"measurement": "Area Under the Curve (AUC) in ITT", "setting": "[2]; single 6 hour treatment, GLP1R-3 20 mg/kg, Exendin 1.0 and 0.23 mg/kg", "value": "significantly (p<0.05) stabilizes"}, {"measurement": "Area Under the Curve (AUC) in ITT", "setting": "[2]; single 6 hour treatment, comparator antibody experiment, 20 mg/kg", "value": "significantly (p<0.05) stabilized"}, {"measurement": "antagonist activity: effect on GLP-1 7-36-induced GLP-1R cAMP signaling", "setting": "GLP-1R [3]", "value": "clear dose-dependent inhibition of the CAMP signal"}, {"measurement": "effect on GLP-1 7-36 induced β-arrestin recruitment", "setting": "GLP-1R [4]", "value": "inhibition of GLP-1 7-36 peptide-induced beta arrestin recruitment"}, {"measurement": "EC50", "setting": "GLP-1R [5]", "value": 3.94, "unit": "nM"}]}]}
